Assay results reported in US20090142784.

Columns and labels:
[1] = target: T1, LRRKtide peptide (RLGRDKYKTLRQIRQ)
T1 chain: RLGRDKYKTLRQIRQ

[2] = target: T2, Nictide (RLGWWRFYTLRRARQGNTKQR)
T2 chain: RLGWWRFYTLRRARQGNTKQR

B1: GST-LRRK2[1326-2527, G2019S] (protein)
chain: LKKAVPYNRMKLMIVGNTGSGKTTLLQQLMKTKKSDLGMQSATVGIDVKDWPIQIRDKRKRDLVLNVWDFAGREEFYSTHPHFMTQRALYLAVYDLSKGQAEVDAMKPWLFNIKARASSSPVILVGTHLDVSDEKQRKACMSKITKELLNKRGFPAIRDYHFVNATEESDALAKLRKTIINESLNFKIRDQLVVGQLIPDCYVELEKIILSERKNVPIEFPVIDRKRLLQLVRENQLQLDENELPHAVHFLNESGVLLHFQDPALQLSDLYFVEPKWLCKIMAQILTVKVEGCPKHPKGIISRRDVEKFLSKKRKFPKNYMSQYFKLLEKFQIALPIGEEYLLVPSSLSDHRPVIELPHCENSEIIIRLYEMPYFPMGFWSRLINRLLEISPYMLSGRERALRPNRMYWRQGIYLNWSPEAYCLVGSEVLDNHPESFLKITVPSCRKGCILLGQVVDHIDSLMEEWFPGLLEIDICGEGETLLKKWALYSFNDGEEHQKILLDDLMKKAEEGDLLVNPDQPRLTIPISQIAPDLILADLPRNIMLNNDELEFEQAPEFLLGDGSFGSVYRAAYEGEEVAVKIFNKHTSLRLLRQELVVLCHLHHPSLISLLAAGIRPRMLVMELASKGSLDRLLQQDKASLTRTLQHRIALHVADGLRYLHSAMIIYRDLKPHNVLLFTLYPNAAIIAKIADYSIAQYCCRMGIKTSEGTPGFRAPEVARGNVIYNQQADVYSFGLLLYDILTTGGRIVEGLKFPNEFDELEIQGKLPDPVKEYGCAPWPMVEKLIKQCLKENPQERPTSAQVFDILNSAELVCLTRRILLPKNVIVECMVATHHNSRNASIWLGCGHTDRGQLSFLDLNTEGYTSEEVADSRILCLALVHLPVEKESWIVSGTQSGTLLVINTEDGKKRHTLEKMTDSVTCLYCNSFSKQSKQKNFLLVGTADGKLAIFEDKTVKLKGAAPLKILNIGNVSTPLMCLSESTNSTERNVMWGGCGTKIFSFSNDFTIQKLIETRTSQLFSYAAFSDSNIITVVVDTALYIAKQNSPVVEVWDKKTEKLCGLIDCVHFLREVMVKENKESKHKMSYSGRVKTLCLQKNTALWIGTGGGHILLLDLSTRRLIRVIYNFCNSVRVMMTAQLGSLKNVMLVLGYNRKNTEGTQKQKEIQSCLTVWDINLPHEVQNLEKHIEVRKELAEKMRRTSVE
Km (phosphorylation of LRRKtide, P81 paper 32P assay) [1]: a similar Km of approximately 200 µM | Km (concentration dependent phosphorylation of Nictide, 5 min reactions) [2]: Calculated Km values are 6 µM for Nictide
